# According to patent US8748572B2, “RNase a peptides, fragments and uses thereof” (priority 2006, dated 2014):
# B1: rRNase A-2: recombinant carboxy-terminal FLAG-tagged Gallus gallus leukocyte RNase A-2, SEQ ID NO: 4, GenBank DQ395276 (protein, listed as Gallus gallus)
# chain: VPTYQDFLYKHMDFPKTSFPSNAAYCNVMMVRRGMTAHGRCKSFNTFVHTDPRNLNTLCINQPDQALRTTRRHFRITDCKLIRSHPTCRYSGNQFNRRVRVGCRGGLPVHLDGTSP
# modifications: C-terminal FLAG tag
# B2: rRNase A-1: recombinant carboxy-terminal FLAG-tagged Gallus gallus leukocyte RNase A-1, SEQ ID NO: 2, GenBank DQ395275 (protein, listed as Gallus gallus)
# chain: VPTYQDFLRTHVDFPKTSFPNIAAYCNVMMVRRGINVHGRCKSLNTFVHTDPRNLNTLCINQPNRALRTTQQQLPVTDCKLIRSHPTCSYTGNQFNHRVRVGCWGGLPVHLDGTFP
# modifications: C-terminal FLAG tag
# Legend:
# E. coli DH5α = test: bactericidal colony-forming assay, E. coli; format: cell-based, Escherichia coli
# Experimental: (§1) FIGS. 5 A & B are graphs showing the bactericidal activity of rRNases A-1 and A-2. In panel (A) E. coli DH5α and in panel (B) S. aureus 502A were re-suspended in 100 mM sodium phosphate buffer, pH 7.4, and incubated with the indicated concentrations of chicken leukocyte RNase A-1 (open squares) and A-2 (closed circles) for 4 h at 37° C., plated on RNase-free LB agar, and grown overnight for colony counts.
# RNase A polypeptides and fragments according to the invention that have bactericidal activity are particularly preferred for use in the treatment methods of the invention. The bactericidal and bacteriostatic activity of a particular RNase A polypeptides or fragments can be assessed by known protocols, such as that described in the methods section and the following described protocol, herein referred to as “a standard bacterial colony formation assay.” Bactericidal assays are well-described in the art, and are performed as described previously, and as exemplified in Examples 3-6. Briefly, an aliquot from a single bacterial colony overnight culture grown in Luria-Beitani (LB) broth is diluted 1:100 in sodium phosphate, pH 7.4, collected by centrifugation, and resuspended in sodium phosphate, pH 7.4. An aliquot of bacteria in buffer are incubated for 4 hr at 37° C. with recombinant protein or peptide at concentrations indicated, or diluent control and were then diluted 10, 100, or 1000-fold prior to plating on LB agar for overnight growth for colony counts.
# Next, the bactericidal activity of chicken leukocyte RNases were examined using a colony-forming assay as previously described for eosinophil cationic protein [28]. […] E. coli was more susceptible to the bactericidal activity of leukocyte rRNase A-2 than was S. aureus, as 5 μM rRNase A-2 reduced the colony count of E. coli 10^7-fold, while reducing the colony count of S. aureus, only 100-fold. Recombinant RNase A-1 had no effect on colony number of E. coli or S. aureus concentrations up to and including […].
# Bactericidal assays were performed as described previously with modifications. Briefly, 100 microliters from a single bacterial colony overnight culture grown in Luria-Bertani (LB) broth was diluted 1:100 in 100 mM sodium phosphate, pH 7.4, collected by centrifugation, and resuspended in 1 ml sodium phosphate, pH 7.4. Ten microliters of bacteria in buffer are incubated for 4 hr at 37° C. with 10 microliters recombinant protein or peptide at concentrations indicated, or diluent control and were then diluted 10, 100, or 1000-fold prior to plating on LB agar for overnight growth for colony counts. All points were determined in triplicate.
# [1] = test system: poly U, poly C, poly A, poly G, poly I, double-stranded RNA; test: ribonuclease assay, substrate preference (polyribonucleotides); format: biochemical; conditions: 50 pmol rRNase, pH 7.0; for hydrolysis of poly U: 250 μg/ml poly U
# Experimental: FIGS. 4 A-D are graphs showing the ribonucleolytic activity of recombinant leukocyte RNases. (A) is a graph showing the optimum pH for RNase activity. Enzymatic activity was determined with 50 pmol rRNase A-1 (open squares) and rRNase A-2 (closed circles) that was incubated with 250 μg/ml yeast tRNA in 40 mM sodium phosphate buffer at the pHs indicated. Measurements of A260 per time were converted to pmol/s as described in […] and Methods. (B) is a graph showing the initial rates for RNase activity. Enzymatic activity was determined as described in (A) with 40 mM sodium phosphate buffer, pH 7.0. (C) is a graph showing the substrate preference for RNase activity. 50 pmol rRNase A-1 (left panel) and rRNase A-2 (right panel) proteins were incubated with 250 μg/ml of poly U (open squares), poly C (closed circles), poly A (open diamonds), poly G (open triangles) and poly I (open circles) in 40 mM sodium phosphate buffers, pH 7.0. A260 was measured after precipitation of undigested RNA at each of the time points indicated. (D) is two panels of graphs showing interaction of RNase with human placental RNase inhibitor (hPR1). RNase activity was measured with […] of bovine pancreatic RNase (left) or […] rRNase A-1 and rRNase A-2 (right) with 250 μg/ml of yeast tRNA as substrate with (+) or without (−) 200 U human placental RNase inhibitor (hPR1) in 40 mM sodium phosphate buffer, pH 7.0. The hPR1 was added to the RNases in buffer 5 min prior to initiation of RNase assay by addition of substrate. *p<0.01.
# The ribonuclease (RNase) assay with yeast tRNA substrate has been described in detail elsewhere. In this study, 10 μL of a 20 mg/ml solution of yeast tRNA, polyuridylic acid (poly U), polyadenylic acid (poly A), polycytidylic acid (poly C), polyguanylic acid (poly G), or polyinosinic acid (poly I) (Sigma-Aldrich) were added to 800 μl of 40 mM sodium phosphate buffer, pH 7.0 containing recombinant FLAG-tagged chicken RNase protein. In experiments in which the pH optimum was to be determined, 40 mM sodium phosphate buffers of pH 5.0, 5.5, 6.0, 6.5, […] or 8.0 were used instead of the buffer of pH 7.0. In some experiments, 200 U human placental RNase inhibitor (Boehringer Mannheim) were added prior to the addition of the tRNA substrate. Conversion of units A260 per unit time to pmol/s were performed as described in [29], based on the following conversion factors: the average molecular weight of a molecule of tRNA is 28,100 (75-90 ribonucleotides/tRNA molecule×341 MW per ribonucleotide) with an A260 of 1.0 corresponding to 40 μg of RNA.
# S. aureus 502A = test: bactericidal colony-forming assay, S. aureus; format: cell-based, Staphylococcus aureus
# Experimental: as §1
# RNase A polypeptides and fragments according to the invention that have bactericidal activity are particularly preferred for use in the treatment methods of the invention. The bactericidal and bacteriostatic activity of a particular RNase A polypeptides or fragments can be assessed by known protocols, such as that described in the methods section and the following described protocol, herein referred to as “a standard bacterial colony formation assay.” Bactericidal assays are well-described in the art, and are performed as described previously, and as exemplified in Examples 3-6. Briefly, an aliquot from a single bacterial colony overnight culture grown in Luria-Beitani (LB) broth is diluted 1:100 in sodium phosphate, pH 7.4, collected by centrifugation, and resuspended in sodium phosphate, pH 7.4. […]
# Bactericidal assays were performed as described previously with modifications. […] All points were determined in triplicate.
Molecule,"reduction of colony count of E. coli (E. coli DH5α; 5 μM, 4 h at 37° C.)","colony count of E. coli after incubation (E. coli DH5α; 5 μM, 4 hrs) [CFU/ml]",hydrolysis of poly U [1],cleavage of poly C and poly A ([1]; 250 μg/ml substrate),"reduction of colony count of S. aureus (S. aureus 502A; 5 μM, 4 h at 37° C.) [fold]","bactericidal activity against E. coli (in words), recombinant proteins (E. coli DH5α; 5 μM, 4 hrs)",effect on colony number of E. coli (E. coli DH5α; concentrations up to and including 5 μl %/1),polyribonucleotides other than poly U as substrates ([1]; 250 μg/ml substrate),effect on colony number of S. aureus (S. aureus 502A; concentrations up to and including 5)
B1,10^7 fold,< 100,"hydrolyzed poly U RNA, at initial rates that were roughly equivalent to one another","cleaved poly C and poly A, although at initial rates that were lower than those observed for poly U",100,,,,
B2,,,"hydrolyzed poly U RNA, at initial rates that were roughly equivalent to one another",,,no impact on colony count,no effect,poor substrates,no effect
